# Measured values from patent US20030175243A1.
# Target: natural cellular receptor for adenoviruses, on human 293 cells
# Experiment: cell-based or functional assay
substance,measurement,value
Ad5 fiber with the mutation G443D (from UniProt P11818 1-581),propagation of the corresponding virus in 293 cells (multiplication factor) (multiplication factor),< 1
Ad5 fiber ΔCD+D (deletion of the CD loop and of the D sheet) (from UniProt P11818 1-581),propagation of the corresponding virus in 293 cells (multiplication factor) (multiplication factor),< 1
Ad5 fiber with the mutation L457K (from UniProt P11818 1-581),propagation of the corresponding virus in 293 cells (multiplication factor) (multiplication factor),< 1
"GRP fiber (Ad5 fiber with a 12-residue spacer arm and the GRP peptide at its C-terminal end), carried by AdTG4628 (from UniProt P11818 1-581)",multiplication factor of the virus in 293 cells (7 days post-infection) (multiplication factor),1000
Ad5 fiber with the mutation I459A (from UniProt P11818 1-581),propagation of the corresponding virus in 293 cells (multiplication factor) (multiplication factor),< 1
Ad5 fiber with the mutation A455F (from UniProt P11818 1-581),propagation of the corresponding virus in 293 cells (multiplication factor) (multiplication factor),< 1
Ad5 fiber ΔD (deletion of the D sheet of the Ad5 fiber) (from UniProt P11818 1-581),propagation of the corresponding virus in 293 cells (multiplication factor) (multiplication factor),< 1
Ad5 fiber CD5 to CD3 (replacement of the CD loop of an Ad5 with its equivalent from an Ad3),propagation of the corresponding virus in 293 cells (multiplication factor) (multiplication factor),< 1
